# Entries after “also recorded” stand apart in the source; their conditions may differ.
# Assays:
# [1] = system: primary oligodendrocyte (OL) cultures; assay: LDH assay of cell death in primary oligodendrocyte cultures exposed to normoxia or OGD with recombinant CCL20; type: cell-based, rat
# Procedure: Mixed glial cultures were prepared from postnatal day 2 rats and oligodendrocytes (OL) cultures were purified using the shaking and differential adherence method as previously described (26). Cell preparations were seeded (1.5×10^7) into flasks, OLs were purified from these preparations after 8 DIV and plated onto glass poly-l-lysine-treated coverslips. Following a 7 day proliferation period, the PDGF-AA was withdrawn for 5 days to induce OL differentiation into the mature phenotype. Experiments were conducted within three weeks.
# Primary cells previously seeded onto glass coverslips were randomly assigned to one of five conditions: OGD (DMEM without glucose)+vehicle, OGD+CCL20 (200 ng; Rad Systems, Minneapolis, Minn.), normoxia (DMEM with glucose) only, normoxia+vehicle, or normoxia+CCL20. Cells undergoing OGD were placed in an airtight hypoxic chamber. The chamber was then flushed with hypoxic gas (95% N2, 4% CO2, 1% O2; Airgas, Tampa, Fla.) for 15 min and […] for the duration of exposure. Normoxic cells were maintained in a standard tissue culture incubator. Cultures were subjected to OGD or normoxia for 24 h at 37° C. The medium from each well was collected, clarified by centrifugation, and lactate dehydrogenase (LDH) analyzed immediately.
# Cell death in culture was determined using the lactate dehydrogenase (LDH) assay (Takara Bio, Inc., Madison, Wis.). Briefly, 100 μl of tissue culture medium from each experimental group was added to a 96-well plate and 100 μl of LDH reagent was added to each well. Plates were incubated for 30 min at 25° C. and absorbances were read on a microplate reader at a 548 nm wavelength. The absorbance of medium only wells was subtracted from the total absorbance of each experimental treatment group to control for background LDH activity.
# Briefly, rat primary neurons or OLs were exposed to normoxia or OGD in the presence of 200 ng recombinant CCL20 or vehicle. Following the exposure, culture medium was collected and the LDH assay was performed to assess cellular death.
# [2] = system: primary neuronal cultures; assay: LDH assay of cell death in primary neuronal cultures exposed to normoxia or OGD with recombinant CCL20; type: cell-based, rat; conditions: 200 ng recombinant CCL20, 24 h
# Procedure: Cortices from E18 rat embryos were dissociated with a solution of 0.25% trypsin/2.21 mM EDTA for 10 min at 37° C. The solution was triturated to obtain a uniform single cell suspension. After centrifugation, the supernatant was aspirated off and the cells were re-suspended in DMEM (Mediatech, Mannasas, Va.). Trypan blue exclusion was used to count viable cells and 3×10^5 cells in a final volume of 1 mL were seeded on 24 well poly-L-lysine treated culture plates. After 24 h, the medium was changed to neurobasal complete (neurobasal medium (Invitrogen), B-27 (Invitrogen), 0.05 mM L-glutamine (Mediatech) and cells were cultured for 7 days. Cells were used for oxygen glucose deprivation (OGD) experiments following one medium change, as determined by experimental grouping.
# Primary cells previously seeded onto glass coverslips were randomly assigned to one of five conditions: OGD (DMEM without glucose)+vehicle, OGD+CCL20 (200 ng; Rad Systems, Minneapolis, Minn.), normoxia (DMEM with glucose) only, normoxia+vehicle, or normoxia+CCL20. […] The medium from each well was collected, clarified by centrifugation, and lactate dehydrogenase (LDH) analyzed immediately.
# Cell death in culture was determined using the lactate dehydrogenase (LDH) assay (Takara Bio, Inc., Madison, Wis.). […] Plates were incubated for 30 min at 25° C. and absorbances were read on a microplate reader at a 548 nm wavelength. […]
substance,measurement,setting,value
"CCL20: recombinant CC chemokine ligand 20 (CCL20, MIP-3α), purchased chemokine applied at 200 ng to cultured cells",LDH release / cellular toxicity in OL cultures,"[1]; normoxia, 200 ng recombinant CCL20, 24 h, vs normoxia without CCL20",elicited toxicity to OLs; also recorded: increased LDH release
same,LDH release / cell death in OL cultures,"[1]; oxygen glucose deprivation (OGD), 200 ng recombinant CCL20, 24 h, relative to OGD alone",significantly increased; also recorded: further enhanced OGD-induced cellular toxicity
same,toxicity to cultured oligodendrocytes,"[1]; summary statement, conditions not given",toxic to cultured oligodendrocytes
same,LDH release / neuronal viability,[2]; normoxia,did not affect neuronal viability; also recorded: had no effect
same,LDH release / cell death in neurons,"[2]; oxygen glucose deprivation (OGD), relative to OGD alone",significantly increased; also recorded: increased lactate dehydrogenase (LDH) release

# From patent publication US20150030609A1, “DIAGNOSIS AND TREATMENT OF TRAUMATIC BRAIN INJURY” (UNIVERSITY OF SOUTH FLORIDA, priority 2011, published 2015)
